Laboratory results published in patent publication US12383572B2, “Administration of an anti-activin-a compound to a subject” (AMGEN INC., priority 2013, dated 2025).

Key:
[1] = system: testicular tumors in inh-KO mice; test: Testicular tumor mass by necropsy in male inh-KO mice; assay type: in vivo, mouse; conditions: 8-week-old male inh-KO mice, single injection 30 mg/kg SC, necropsy 14 days after
Method: Inh-KO mice. 12-week-old female and 8-week-old male inh-KO mice with fully established ovarian or testicular tumors received a single injection of PBS or sActRIIB (30 mg/kg, SC). As a control, age-matched wild-type littermates received a single injection of PBS. Ovarian and testicular organ weights were determined by necropsy 14 days after the injection.

activin-A (βA) mRNA = test: Northern blot of activin-A (βA) mRNA in inh-KO tumors; assay type: in vivo, mouse; conditions: inh-KO mice, increase vs WT controls
Method: Total RNA was isolated from individual tissue samples after homogenization in Trizol (Invitrogen). A pool of 10 μg RNA for each group containing equal amounts of total RNA isolated from individual animals was subjected to Northern blot analysis. The northern probes used for βA and Ang-2 were generated by using RT-PCR (Phusion, Biolabs). βA primer set: 5′-CCCTTGCTTTGGCTGAGAGGA-3′ (SEQ ID NO: 294) and 5′-TC ACA GGT CGT CGT AGG TCG-3′ (SEQ ID NO: 295); Ang-2 primer set: 5′-TGT GCC GGG GAG AAG AG (SEQ ID NO: 296) and 5′-TACAGTAGTGGGTTGAGGTTC-3′ (SEQ ID NO: 297). To normalize the expression, northern blot membranes were re-probed with β-actin.

activin-A = target: T1, activin-A (Mus musculus, UniProt Q04998); test: Serum activin-A ELISA in inh-KO mice with established gonadal tumors; assay type: in vivo; conditions: single injection 30 mg/kg SC
T1 construct: from tissue; host or cells: serum of inhibin-α knockout (inh-KO) and wild-type mice
T1 sequence (Q04998 309-424): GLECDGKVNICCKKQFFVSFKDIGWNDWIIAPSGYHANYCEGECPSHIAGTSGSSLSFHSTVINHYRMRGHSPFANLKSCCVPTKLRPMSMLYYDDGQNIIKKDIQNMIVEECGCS
Method: Inh-KO mice. 12-week-old female and 8-week-old male inh-KO mice with fully established ovarian or testicular tumors received a single injection of PBS or sActRIIB (30 mg/kg, SC). As a control, age-matched wild-type littermates received a single injection of PBS. Ovarian and testicular organ weights were determined by necropsy 14 days after the injection. All serum samples from ovarian cancer patients and healthy subjects were collected under informed consent and were purchased from Bioreclamation, Inc. The serum samples were diluted in buffer (DY995, R & D Systems) and pretreated overnight at 4° C. with 4 M urea (Sigma) to dissociate any protein bound to activin-A. The samples were then transferred to 96 well plates pre-coated with an activin-A monoclonal antibody. After 2 hr incubation at room temperature and a washing step (0.05% Tween 20 in DPBS), a biotin-labeled activin-A monoclonal antibody was added for 1 hr at room temperature. […] An acidic stopping solution (KPL) was added and the degree of enzymatic turnover of the substrate was determined by wavelength absorbance measurement at 450 nm. The absorbance measured is directly proportional to the concentration of activin-A present. A standard curve of absorbance versus activin-A concentration was used to determine the amount of Activin-A in the test sample. Serum activin-A levels in inh-KO mice were measured by using ELISA.

VEGF = test: Serum VEGF immunoassay in inh-KO mice; assay type: in vivo, mouse; conditions: inh-KO mice with advanced tumors, single dose
Method: The serum VEGF levels in inh-KO mice were measured by using immunoassay kit (R & D Systems), and the levels of human VEGF and Ang-1 in cell line culture medium were quantified using ELISA kits purchased from Invitrogen (VEGF) and R & D Systems (Ang-1), by following the manufacturers' recommended protocols.

[2] = sActRIIB and doxorubicin in TOV-21G tumor-bearing nude mice: body weight and muscle mass; assay type: in vivo, mouse
Method: The objective of the present study was to examine the effect of pharmacological administration of sActRIIB, doxorubicin (dox), and sActRIIB plus doxorubicin, respectively, on body weight, tumor growth and muscle mass in nude mice implanted with TOV-21G ovarian xenograft tumors. Eight-week-old female Athymic nude mice were SC injected with 0.2 mL of 5×10^6 TOV-21G cells into the left site of the lower flank of the mice. After 10 days of tumor implantation, the mice were divided into 4 groups by body weight and tumor size and then treated with vehicle, sActRIIB, doxorubicin or the combination of sActRIIB and doxorubicin. In addition, a group of non-tumor bearing mice was used as normal control and received PBS.
Mice were weighed weekly. Body weight data were recorded longitudinally. Tumor size was measured longitudinally by using an electronic caliper. The following formula was used to calculate actual tumor volume (Tomayko M and Reynolds C, 1989): (Volume of a rectangular solid tumor: Tumor volume (mm^3)=length (mm)×width (mm)×height (mm) of tumor). At the end of the study, mice in all groups were subjected to terminal necropsy and lean carcass weight (excluding skin, adipose tissue, internal organs, and head) was determined by using standard anatomical dissection procedures. […] All results were expressed as the mean±SEM (standard error of the mean). […]

[3] = system: endoglin, osteopontin, IGFBP-1, and IGFPB-2; test: Western blot of endoglin, osteopontin, IGFBP-1, IGFBP-2 in inh-KO ovarian tumors; assay type: in vivo, mouse; conditions: inh-KO mice
Method: Protein extracts were prepared from cell cultures or tissues in T-PER tissue protein extraction reagent (Pierce) containing a mixture of protease inhibitors (Roche). A pool of 50 μg total protein for each group containing equal amounts of protein extract isolated from individual animals was separated by NuPAGE 4-12% Bis-Tris gel (Invitrogen) and transferred to PVDF. The membranes were probed with primary antibodies against total Smad2, p-Smad2 or E-cadherin (1:1000; Cell Signaling), endoglin, osteopontin (1:500; R & D Systems), IGFBP-1, IGFBP-2 (1:500; Abcam) followed by HRP-conjugated secondary antibody (1:2000; Cell Signaling). The membranes were stripped and re-probed with antibody against α-tubulin (1:1000; Cell Signaling).

B1: sActRIIB: extracellular domain of human activin type-2B receptor fused to IgG2 Fc; full length SEQ ID NO: 21 (Table 9) (protein, listed as Homo sapiens)
chain: ETRWCIYYNANWELERTNQSGLERCEGEQDKRLHCYASWRNSSGTIELVKKGCWLDDFNCYDRQECVATEENPQVYFCCCEGNFCNERFTHLPEAGGPEVTYEPPPTAPTGGGGSVECPPCPAPPVAGPSVFLFPPKPKDTLMISRTPEVTCVVVDVSHEDPEVQFNWYVDGVEVHNAKTKPREEQFNSTFRVVSVLTVVHQDWLNGKEYKCKVSNKGLPAPIEKTISKTKGQPREPQVYTLPPSREEMTKNQVSLTCLVKGFYPSDIAVEWESNGQPENNYKTTPPMLDSDGSFFLYSKLTVDKSRWQQGNVFSCSVMHEALHNHYTQKSLSLSPGK
With B1 the testicular tumor mass [1] was “dramatic regression of testicular tumor masses to the WT control levels”, the “levels of βA transcripts in the tumors” value (activin-A (βA) mRNA) was “completely blocked” and the “duration of activin-A-neutralizing effect” value (activin-A) was “persisted throughout the 14-day study period”. For the same molecule, the “serum activin-A levels” value (activin-A; within one day after administration) was “reduced the elevated activin-A in the inh-KO mice to normal control levels”, the “serum VEGF” value (VEGF) was “rapidly lowered the elevated VEGF to WT control levels” and the body weight ([2]; TOV-21G tumor-bearing nude mice, sActRIIB 10 mg/kg SC 1x/week, DOX 2 mg/kg IP 1x/week) was “effectively prevented the weight loss”. The “lean carcass weight and calf muscle mass” value ([2]; TOV-21G-implanted nude mice, necropsy at end of 4-week experiment) was “prevented the loss in lean carcass weight and calf muscle mass” and the “induction of endoglin, osteopontin, IGFBP-1 and IGFBP-2 proteins” value [3] was “abolished completely”.
